System: cPP cells
Experiment: Omission of individual components from complete cPP culture medium on 3T3-J2 feeders (phase contrast, qRT-PCR)
Type: cell-based, human
Description: Gentle cell dissociation reagent (STEMCELL Technologies, 07174) was used to passage cPP cells as aggregates that were then seeded at a 1:6 split ratio onto a layer of 3T3-J2 feeders (0.5×10^6 to 1×10^6 cells/cm^2) in medium composed of advanced DMEM/F12 (Thermo Fisher Scientific, 21634010), 2 mM L-glutamine (Thermo Fisher Scientific, 25030), 100 U/mL penicillin/streptomycin (Thermo Fisher Scientific, 15140122), 1× N2 supplement (Thermo Fisher Scientific, 17502-048), 1× B27 supplement (Thermo Fisher Scientific, 17504-044), 30 nM dexamethasone (STEMCELL Technologies, 72092), 50 ng/mL EGF (R&D Systems, 236-EG-200), 50 ng/mL FGF10 (Source Bioscience, ABC144), 3 μM RA (Sigma, R2625), 10 μM SB431542 (Calbiochem, 616464), and 1 μM DAPT (Sigma, D5942). If plating single cPP cells, complete medium was supplemented with 10 μM Y27632 for the first 48 hr (Sigma, Y0503). Medium was completely replenished every 2-3 days.
RNA was isolated from samples using an RNeasy mini kit (Qiagen, cat # 74104) and reverse transcribed to generate cDNA using a high-capacity reverse transcription kit and random hexamer primers (Applied Biosystems, 4368814,1 μg RNA per 20 μL reaction). Quantitative RT-PCR was carried out using SYBR Select Mastermix (Applied Biosystems, 4472908). Data were analyzed using the ΔΔCT method, and normalized to expression of the housekeeping gene TBP in each sample. […]

B1: FGF10: fibroblast growth factor 10, growth factor in the cPP culture medium (50 ng/mL) (protein, UniProt O15520 38-208, looked up)
Fibroblast growth factor 10: QALGQDMVSPEATNSSSSSFSSPSSAGRHVRSYNHLQGDVRWRKLFSFTKYFLKIEKNGKVSGTKKENCPYSILEITSVEIGVVAVKAINSNYYLAMNKKGKLYGSKEFNNDCKLKERIEENGYNTYASFNWQHNGRQMYVALNGKGAPRRGQKTRRKNTSAHFLPMVVHS
Effect of removing the component on cPP expansion, colony size and morphology (component individually omitted from complete medium, cPP cells cultured 6 days on 3T3-J2 feeders): did not significantly affect colony size or morphology in the short term
Effect of removing the component on viability (component removed from the culture media over multiple passages): noticeable loss of viability
